Experimental data taken from patent US20230265151A1, “GIP/GLP1 CO-AGONIST COMPOUNDS” (priority 2020, published 2023).
Changes are numbered by the printed parent chain. *1 amine or outer side, *2 acyl side, *3 side chain or, on linkers, in order; H or OH if unused. Where no end group is shown, it is not given here. Side-chain parts run from the residue outwards. [ ]: non-standard residue; d: D form. The star is where a group is joined. αMePhe(2-F) = C[C@](N)(Cc1ccccc1F)C(=O)O; γGlu = O=C(O)[C@H](CCC(=O)[*:2])N[*:1]; C14 diacid = O=C(O)CCCCCCCCCCCCC(=O)*; εLys = N[C@@H](CCCCN[*:1])C(=O)[*:2]; αMeY = C[C@](N)(Cc1ccc(O)cc1)C(=O)O; αMeF = C[C@](N)(Cc1ccccc1)C(=O)O; αMeL = CC(C)C[C@](C)(N)C(=O)O; Orn = NCCC[C@H](N)C(=O)O; AEEA = NCCOCCOCC(=O)O; Aib = CC(C)(N)C(=O)O

T1: human glucose-dependent insulinotropic polypeptide (GIP) receptor (human, UniProt P48546 22-466)
T1 sequence (looked up): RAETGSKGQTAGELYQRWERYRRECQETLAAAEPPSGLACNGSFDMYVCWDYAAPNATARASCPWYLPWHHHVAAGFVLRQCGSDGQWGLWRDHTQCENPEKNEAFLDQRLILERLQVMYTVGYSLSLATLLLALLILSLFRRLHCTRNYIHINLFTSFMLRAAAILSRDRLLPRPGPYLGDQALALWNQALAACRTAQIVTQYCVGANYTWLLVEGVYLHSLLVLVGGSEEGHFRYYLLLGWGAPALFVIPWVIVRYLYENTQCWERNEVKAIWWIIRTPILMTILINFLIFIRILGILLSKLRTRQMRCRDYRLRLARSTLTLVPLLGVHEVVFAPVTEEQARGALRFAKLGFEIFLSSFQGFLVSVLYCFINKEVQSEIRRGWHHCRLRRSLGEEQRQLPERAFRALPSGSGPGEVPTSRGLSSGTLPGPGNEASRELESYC

B1: Example 167 (peptide)
peptide: Y[Aib]EGT[αMePhe(2-F)]TSDV[Aib]I[αMeL]LD[Orn]K([εLys-γGlu-C14 diacid])AQ[Aib]EFIK([εLys-γGlu-C14 diacid])[αMeY]LIEGGPSSGAPPPS-NH2
B2: Example 166 (peptide)
peptide: Y[Aib]EGT[αMePhe(2-F)]TSDV[Aib]I[αMeL]LD[Orn]K([AEEA-AEEA-εLys-C14 diacid])AQ[Aib]EFIK([AEEA-AEEA-εLys-C14 diacid])[αMeY]LIEGGPSSGAPPPS-NH2
B3: Example 182 (peptide)
peptide: Y[Aib]EGT[αMeF]TSDV[Aib]I[αMeL]LD[Orn]K([AEEA-AEEA-γGlu-C14 diacid])AQ[Aib]EFIK([AEEA-AEEA-γGlu-C14 diacid])[αMeY]LIEGGKSSGAPPPS-NH2
modifications: not fully specified
B4: Example 168 (peptide)
peptide: Y[Aib]EGT[αMePhe(2-F)]TSDV[Aib]I[αMeL]LD[Orn]K([εLys-εLys-γGlu-C14 diacid])AQ[Aib]EFIK([εLys-εLys-γGlu-C14 diacid])[αMeY]LIEGGPSSGAPPPS-NH2
B5: Example 281 (peptide)
peptide: YXEGTXTSDXSIXLDXKAQXKFIXXLIEGGPSSGAPPPS
modifications: Aib2, αMeF(2F)6, 2Nal10, αMeL13, Orn16, K17(Z), Aib20, K21(Z), D-Glu24, αMeY25, C-terminal NH2; Z = AEEA2-(γ-Glu)-(10-(4-carboxyphenoxy)decanoyl)
B6: Example 157 (peptide)
peptide: B5 peptide with K21X, P31K
modifications: Aib2, αMeF(2F)6, 4Pal10, αMeL13, Orn16, K17(Z), Aib20, 4Pal21, D-Glu24, αMeY25, K31(Z), C-terminal NH2; Z = AEEA2-(γ-Glu)-CO-(CH2)12-CO2H
B7: Example 159 (peptide)
peptide: B5 peptide with K21E, X24E, P31K
modifications: Aib2, αMeF(2F)6, 4Pal10, αMeL13, Orn16, K17(Z), Aib20, αMeF25, K31(Z), C-terminal NH2; Z = AEEA2-(γ-Glu)-CO-(CH2)12-CO2H
B8: Example 193 (peptide)
peptide: B5 peptide with K17I, K21E, X24K, P31K
modifications: Aib2, αMeF(2F)6, 4Pal10, αMeL13, Orn16, Aib20, K24(Z), αMeY25, K31(Z), C-terminal NH2; Z = AEEA2-CO-(CH2)12-CO2H
B9: Example 284 (peptide)
peptide: B5 peptide with K17I, E28K
modifications: Aib2, αMeF(2F)6, 2Nal10, αMeL13, Orn16, Aib20, K21(Z), D-Glu24, αMeY25, K28(Z), C-terminal NH2; Z = AEEA2-(γ-Glu)-(10-(4-carboxyphenoxy)decanoyl)
B10: Example 172 (peptide)
peptide: B5 peptide with K21E, P31K
modifications: Aib2, αMeF6, 4Pal10, αMeL13, Orn16, K17(Z), Aib20, D-Glu24, αMeY25, K31(Z), C-terminal NH2; Z = AEEA2-(γ-Glu)-CO-(CH2)10-CH3
B11: Example 158 (peptide)
peptide: B5 peptide with K21E, X24E, P31K
modifications: Aib2, αMeF(2F)6, 4Pal10, αMeL13, Orn16, K17(Z), Aib20, αMeY25, K31(Z), C-terminal NH2; Z = AEEA2-(γ-Glu)-CO-(CH2)12-CO2H
B12: Example 156 (peptide)
peptide: B5 peptide with K21E, P31K
modifications: Aib2, αMeF(2F)6, 4Pal10, αMeL13, Orn16, K17(Z), 4Pal20, D-Glu24, αMeY25, K31(Z), C-terminal NH2; Z = AEEA2-(γ-Glu)-CO-(CH2)12-CO2H
B13: Example 171 (peptide)
peptide: B5 peptide with K21E, P31K
modifications: Aib2, αMeF(2F)6, 4Pal10, αMeL13, Orn16, K17(Z), Ac6c20, D-Glu24, αMeY25, K31(Z), C-terminal NH2; Z = AEEA2-(γ-Glu)-CO-(CH2)12-CO2H
B14: Example 169 (peptide)
peptide: B5 peptide with K21E, P31K
modifications: Aib2, αMeF(2F)6, 4Pal10, αMeL13, Orn16, K17(Z), aMeF20, D-Glu24, αMeY25, K31(Z), C-terminal NH2; Z = AEEA2-(γ-Glu)-CO-(CH2)12-CO2H
B15: Example 192 (peptide)
peptide: B5 peptide with K17I, K21E, X24K, E28K
modifications: Aib2, αMeF(2F)6, 4Pal10, αMeL13, Orn16, Aib20, K24(Z), αMeY25, K28(Z), C-terminal NH2; Z = AEEA2-CO-(CH2)12-CO2H
B16: Example 289 (peptide)
peptide: B5 peptide
modifications: Aib2, αMeF(2F)6, OMeY10, αMeL13, Orn16, K17(Z), Aib20, K21(Z), D-Glu24, αMeY25, C-terminal NH2; Z = AEEA2-(γ-Glu)-CO-(CH2)10-CH3
B17: Example 283 (peptide)
peptide: B5 peptide with K17I, K21E, X24K, E28K
modifications: Aib2, αMeF(2F)6, 2Nal10, αMeL13, Orn16, Aib20, K24(Z), αMeY25, K28(Z), C-terminal NH2; Z = AEEA2-(γ-Glu)-(10-(4-carboxyphenoxy)decanoyl)
B18: Example 162 (peptide)
peptide: B5 peptide with K21E, X24K
modifications: Aib2, αMeF(2F)6, 4Pal10, αMeL13, Orn16, K17(Z), Aib20, K24(Z), αMeY25, C-terminal NH2; Z = (εK)-(εK)-(γ-Glu)-CO-(CH2)12-CO2H

biological target: human glucagon-like peptide-1 (GLP-1) receptor (human, UniProt P43220 24-463); assay: cell-based or functional assay

Row | Binder | cAMP EC50 | cAMP Emax
1 | B1 | 0.217 nM | 91.4%
2 | B2 | 0.192 nM | 90.3%
3 | B3 | 0.185 nM | 96.9%
4 | B4 | 0.312 nM | 93.3%
5 | B5 | 0.252 nM | –
6 | B6 | 0.94 nM | –
7 | B7 | 0.558 nM | 89.4%
8 | B8 | 0.382 nM | –
9 | B9 | 0.505 nM | –
10 | B10 | 0.141 nM | –
11 | B11 | 0.448 nM | 87.2%
12 | B12 | 4.6 nM | –
13 | B13 | 1.7 nM | –
14 | B14 | 1.23 nM | –
15 | B15 | 0.518 nM | –
16 | B16 | 0.731 nM | –
17 | B17 | 1.14 nM | –
18 | B18 | 0.327 nM | –

biological target: human glucagon receptor (human, UniProt P47871 26-477); assay: cell-based or functional assay

Row | Binder | cAMP EC50
19 | B1 | > 9950 nM
20 | B2 | > 9950 nM
21 | B3 | > 9950 nM
22 | B4 | > 9950 nM
23 | B5 | > 9950 nM
24 | B6 | > 9950 nM
25 | B7 | > 9950 nM
26 | B8 | > 9950 nM
27 | B9 | > 9950 nM
28 | B10 | > 9950 nM
29 | B11 | > 9950 nM
30 | B12 | > 9950 nM
31 | B13 | > 9950 nM
32 | B14 | > 9950 nM
33 | B15 | > 9950 nM
34 | B16 | > 9950 nM
35 | B17 | > 9950 nM
36 | B18 | > 9950 nM

biological target: T1, human glucose-dependent insulinotropic …; assay: cell-based or functional assay

Row | Binder | cAMP EC50 | cAMP Emax
37 | B1 | 0.0534 nM | 99.5%
38 | B2 | 0.0774 nM | 97%
39 | B3 | 0.368 nM | 89%
40 | B4 | 0.0482 nM | 93%
41 | B5 | 0.0187 nM | –
42 | B6 | 0.0286 nM | 98.8%
43 | B7 | 0.0198 nM | 95.3%
44 | B8 | 0.0201 nM | 97.2%
45 | B9 | 0.0389 nM | –
46 | B10 | 0.0149 nM | –
47 | B11 | 0.0204 nM | 93.4%
48 | B12 | 0.0422 nM | –
49 | B13 | 0.0389 nM | –
50 | B14 | 0.0381 nM | –
51 | B15 | 0.0375 nM | –
52 | B16 | 0.017 nM | –
53 | B17 | 0.073 nM | –
54 | B18 | 0.022 nM | 89.7%
